The data set relates to Escherichia coli TOP10. As to the kind of experiment: shrunken log2 fold change of peptide-encoding DNA abundance (4.5 h post-induction vs induction); higher = less antimicrobial activity (less host growth inhibition). The following applies: time post-induction: 4.5 h; library: site-saturation at positions 5, 18, 19, 20.
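Note: peptides expressed intracellularly from a pBAD plasmid library in pooled LB shake-flask culture, induced with 0.3% L-arabinose, DNA abundance read by NGS, three biological replicates, DESeq2 with apeglm shrinkage.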

Take RRIRARPPRLPRPRPRPPLTPRP: the “shrunken log2 fold change” value is 0.536.

Turning to RRIRSRPPRLPRPRPRPQPSPRP, the “shrunken log2 fold change” value was determined as 0.296. For RRIRTRPPRLPRPRPRPYIPPRP, the “shrunken log2 fold change” value is -0.462.

RRIRGRPPRLPRPRPRPMKTPRP: the “shrunken log2 fold change” value was 0.494.

Turning to RRIRARPPRLPRPRPRPTTLPRP, the “shrunken log2 fold change” value was found to be 0.067. With RRIRIRPPRLPRPRPRPQREPRP, the “shrunken log2 fold change” value stood at 0.0374. For RRIRVRPPRLPRPRPRPVRTPRP, the “shrunken log2 fold change” value was found to be 0.103.

With RRIRSRPPRLPRPRPRPYWDPRP, the “shrunken log2 fold change” value was -0.321. In the case of RRIRKRPPRLPRPRPRPADPPRP, the “shrunken log2 fold change” value is -0.0715.

Regarding RRIRRRPPRLPRPRPRPSMFPRP, the “shrunken log2 fold change” value is -0.0509. For the sequence RRIRVRPPRLPRPRPRPHLIPRP, the “shrunken log2 fold change” value is -0.352. Then RRIRDRPPRLPRPRPRPKSTPRP, with -0.175; and RRIRLRPPRLPRPRPRPCERPRP, with -0.0471. To RRIRWRPPRLPRPRPRPKLLPRP belongs 0.336; to RRIRHRPPRLPRPRPRPREPPRP, 0.773. As to RRIRHRPPRLPRPRPRPFMKPRP, the “shrunken log2 fold change” value was -0.00214. Turning to RRIRTRPPRLPRPRPRPVLVPRP, the “shrunken log2 fold change” value is -0.106. In the case of RRIRGRPPRLPRPRPRPNHHPRP, the “shrunken log2 fold change” value amounted to 0.491. As for RRIRKRPPRLPRPRPRPMVSPRP, the “shrunken log2 fold change” value turned out to be 0.0111. As to RRIRMRPPRLPRPRPRPQENPRP, the “shrunken log2 fold change” value amounted to 0.48. Turning to RRIRHRPPRLPRPRPRPREWPRP, the “shrunken log2 fold change” value is 0.0987.

RRIRFRPPRLPRPRPRPMGDPRP: the “shrunken log2 fold change” value is -0.0467.

For RRIRTRPPRLPRPRPRPTIDPRP, the “shrunken log2 fold change” value is -0.319.

RRIRPRPPRLPRPRPRPEIKPRP: the “shrunken log2 fold change” value was found to be 0.0782. Turning to RRIRTRPPRLPRPRPRPRQLPRP, the “shrunken log2 fold change” value is 0.187. Take RRIRERPPRLPRPRPRPDGRPRP: the “shrunken log2 fold change” value was -0.03. Regarding RRIRYRPPRLPRPRPRPPSRPRP, the “shrunken log2 fold change” value was found to be 0.232. RRIRHRPPRLPRPRPRPNKLPRP: the “shrunken log2 fold change” value is -1.05. To RRIRPRPPRLPRPRPRPACYPRP belongs -0.199; to RRIRNRPPRLPRPRPRPNVQPRP, -0.128; to RRIRCRPPRLPRPRPRPMAHPRP, -0.00655. To RRIRARPPRLPRPRPRPQMWPRP belongs 0.102; to RRIRCRPPRLPRPRPRPQVTPRP, -0.102. For the sequence RRIRRRPPRLPRPRPRPNTNPRP, the “shrunken log2 fold change” value is -0.22. For RRIRVRPPRLPRPRPRPEPAPRP, the “shrunken log2 fold change” value came to 0.44. To RRIRQRPPRLPRPRPRPTFPPRP belongs -0.0691; to RRIRLRPPRLPRPRPRPWHLPRP, -0.28. As to RRIRDRPPRLPRPRPRPRYSPRP, the “shrunken log2 fold change” value is -0.662.

As to RRIRLRPPRLPRPRPRPYGTPRP, the “shrunken log2 fold change” value was -0.68. RRIRKRPPRLPRPRPRPRCMPRP: the “shrunken log2 fold change” value turned out to be 0.401. With RRIRIRPPRLPRPRPRPVILPRP, the “shrunken log2 fold change” value was -0.423. RRIRKRPPRLPRPRPRPKIVPRP: the “shrunken log2 fold change” value stood at 0.0401. For RRIRFRPPRLPRPRPRPHPEPRP, the “shrunken log2 fold change” value was -0.00858. As to RRIRSRPPRLPRPRPRPMMFPRP, the “shrunken log2 fold change” value is 0.0732.

Turning to RRIRHRPPRLPRPRPRPEQIPRP, the “shrunken log2 fold change” value amounted to 0.0219.

Turning to RRIRLRPPRLPRPRPRPCLHPRP, the “shrunken log2 fold change” value is -0.113.

Consider RRIRPRPPRLPRPRPRPWKAPRP, for which the “shrunken log2 fold change” value is -0.133.

Take RRIRIRPPRLPRPRPRPMCFPRP: the “shrunken log2 fold change” value is -0.343. Then RRIRQRPPRLPRPRPRPYQRPRP, with -0.52; and RRIRVRPPRLPRPRPRPRVVPRP, with 0.2. As for RRIRRRPPRLPRPRPRPQWIPRP, the “shrunken log2 fold change” value is 0.064. In the case of RRIRDRPPRLPRPRPRPHQWPRP, the “shrunken log2 fold change” value was 0.031. As to RRIRQRPPRLPRPRPRPYQAPRP, the “shrunken log2 fold change” value is -0.232.

Take RRIRTRPPRLPRPRPRPPFPPRP: the “shrunken log2 fold change” value came to 0.256. For RRIRMRPPRLPRPRPRPRKYPRP, the “shrunken log2 fold change” value came to 0.276. For the sequence RRIRFRPPRLPRPRPRPYDFPRP, the “shrunken log2 fold change” value is -0.0848. RRIRERPPRLPRPRPRPPITPRP: the “shrunken log2 fold change” value is -0.351. To RRIRVRPPRLPRPRPRPGNKPRP belongs -0.286; to RRIRARPPRLPRPRPRPTDCPRP, 0.0381. Then RRIRWRPPRLPRPRPRPATMPRP, with 0.0187. RRIRRRPPRLPRPRPRPVRFPRP: the “shrunken log2 fold change” value is 0.632. To RRIRWRPPRLPRPRPRPFQAPRP belongs -0.222; to RRIRIRPPRLPRPRPRPAHIPRP, -0.063; to RRIRSRPPRLPRPRPRPEAVPRP, -0.0338. For RRIRDRPPRLPRPRPRPDEYPRP, the “shrunken log2 fold change” value was 0.436. Then RRIRPRPPRLPRPRPRPVRMPRP, with 0.213; and RRIRCRPPRLPRPRPRPQFTPRP, with -0.427. To RRIRCRPPRLPRPRPRPCQVPRP belongs -0.342; to RRIRSRPPRLPRPRPRPNFGPRP, -0.265; to RRIRWRPPRLPRPRPRPFDVPRP, -0.00233. Take RRIRHRPPRLPRPRPRPRWIPRP: the “shrunken log2 fold change” value is -0.108. As for RRIRRRPPRLPRPRPRPTAFPRP, the “shrunken log2 fold change” value was determined as 1.31. Take RRIRHRPPRLPRPRPRPHWHPRP: the “shrunken log2 fold change” value is -0.25. As for RRIRVRPPRLPRPRPRPMQEPRP, the “shrunken log2 fold change” value is -0.0018.

As for RRIRKRPPRLPRPRPRPYYKPRP, the “shrunken log2 fold change” value is -0.445. As to RRIRDRPPRLPRPRPRPVFHPRP, the “shrunken log2 fold change” value was -0.707. For RRIRTRPPRLPRPRPRPSKCPRP, the “shrunken log2 fold change” value was -0.535. RRIRIRPPRLPRPRPRPKFVPRP: the “shrunken log2 fold change” value is -0.0693. Then RRIRSRPPRLPRPRPRPNWNPRP, with -0.453; and RRIRRRPPRLPRPRPRPCCWPRP, with 0.322. Turning to RRIRMRPPRLPRPRPRPAVPPRP, the “shrunken log2 fold change” value was determined as 0.328. RRIRVRPPRLPRPRPRPWDCPRP: the “shrunken log2 fold change” value was -0.0389. As for RRIRVRPPRLPRPRPRPQSGPRP, the “shrunken log2 fold change” value was -0.0607.

On to RRIRARPPRLPRPRPRPIQQPRP, for which the “shrunken log2 fold change” value is 0.0227. To RRIRQRPPRLPRPRPRPHSSPRP belongs -0.271; to RRIRSRPPRLPRPRPRPKMEPRP, -0.0294. Consider RRIRMRPPRLPRPRPRPEAQPRP, for which the “shrunken log2 fold change” value worked out at 3.76. Then RRIRSRPPRLPRPRPRPHTSPRP, with -0.445; and RRIRERPPRLPRPRPRPYVRPRP, with -0.00133.

With RRIRQRPPRLPRPRPRPDFNPRP, the “shrunken log2 fold change” value is -0.164. Consider RRIRFRPPRLPRPRPRPDHGPRP, for which the “shrunken log2 fold change” value amounted to 0.0405. For RRIRTRPPRLPRPRPRPDSMPRP, the “shrunken log2 fold change” value came to 0.0768.

For the sequence RRIRGRPPRLPRPRPRPISGPRP, the “shrunken log2 fold change” value was 0.000749. As for RRIRRRPPRLPRPRPRPCNPPRP, the “shrunken log2 fold change” value is -0.466.

RRIRFRPPRLPRPRPRPVDRPRP: the “shrunken log2 fold change” value came to 0.123. On to RRIRVRPPRLPRPRPRPHMWPRP, for which the “shrunken log2 fold change” value was -0.49.

RRIRMRPPRLPRPRPRPEFPPRP: the “shrunken log2 fold change” value amounted to 0.745. As to RRIRYRPPRLPRPRPRPSDQPRP, the “shrunken log2 fold change” value is -0.235. Take RRIRARPPRLPRPRPRPGFTPRP: the “shrunken log2 fold change” value came to 0.204.

For the sequence RRIRFRPPRLPRPRPRPLINPRP, the “shrunken log2 fold change” value was -0.421. With RRIRERPPRLPRPRPRPKWTPRP, the “shrunken log2 fold change” value came to 0.0657. Turning to RRIRIRPPRLPRPRPRPIGMPRP, the “shrunken log2 fold change” value was -0.187.

Take RRIRPRPPRLPRPRPRPEVAPRP: the “shrunken log2 fold change” value is 0.212. With RRIRIRPPRLPRPRPRPPKAPRP, the “shrunken log2 fold change” value was -0.0729.

Consider RRIRGRPPRLPRPRPRPNKIPRP, for which the “shrunken log2 fold change” value is 0.214.

Turning to RRIRCRPPRLPRPRPRPQLQPRP, the “shrunken log2 fold change” value was determined as 0.0481. To RRIRWRPPRLPRPRPRPSIPPRP belongs 0.46; to RRIRRRPPRLPRPRPRPFPIPRP, 0.199; to RRIRVRPPRLPRPRPRPCHTPRP, -0.0202.

As to RRIRSRPPRLPRPRPRPFMGPRP, the “shrunken log2 fold change” value was -0.216. With RRIRFRPPRLPRPRPRPKDCPRP, the “shrunken log2 fold change” value was found to be 0.104. Regarding RRIRIRPPRLPRPRPRPVFPPRP, the “shrunken log2 fold change” value is -0.221. To RRIRYRPPRLPRPRPRPKFSPRP belongs -0.434; to RRIRQRPPRLPRPRPRPTHCPRP, 0.897. RRIRTRPPRLPRPRPRPPYRPRP: the “shrunken log2 fold change” value is -0.187. For RRIRRRPPRLPRPRPRPEDHPRP, the “shrunken log2 fold change” value was found to be 0.122. For the sequence RRIRIRPPRLPRPRPRPPQGPRP, the “shrunken log2 fold change” value came to 0.123. RRIRARPPRLPRPRPRPMTTPRP: the “shrunken log2 fold change” value stood at 0.505.

Take RRIRWRPPRLPRPRPRPNASPRP: the “shrunken log2 fold change” value was 0.267. Consider RRIRCRPPRLPRPRPRPYEWPRP, for which the “shrunken log2 fold change” value is -0.0207.

As for RRIRRRPPRLPRPRPRPQKWPRP, the “shrunken log2 fold change” value was determined as 0.136.

Consider RRIRLRPPRLPRPRPRPLYGPRP, for which the “shrunken log2 fold change” value is -0.249. In the case of RRIRWRPPRLPRPRPRPVCWPRP, the “shrunken log2 fold change” value is 0.758. With RRIRCRPPRLPRPRPRPEYCPRP, the “shrunken log2 fold change” value was -0.0902. With RRIRHRPPRLPRPRPRPMTRPRP, the “shrunken log2 fold change” value is -0.0247.
